Results on one substance are retold here after article PMC11883000, “Structure-function relationship of ASH1L and histone H3K36 and H3K4 methylation” (Nature Communications, 2025).

The target in this experiment is Substitution of D2595 or D2584 with alanine (ASH1L PHD finger mutants). The experiment in a line: not stated; wild type and mutants of ASH1LPHD with H3K4me3 peptide (Fig. 3c, Supplementary Figs. 5 and 6); the legend names tryptophan fluorescence, MST or NMR, which for each mutant is marked only in the figure.

On to “histone H3K4me3 peptide (aa 1-12 of H3) (from UniProt P68431 2-13)”, for which the Kd was in the range of 5 to 7 µM.
